The text below walks through data of the Human Domainome abundance scans (Beltran et al. 2025).

± gives the uncertainty stated by the source.

The chains are these.
B1: Gamma-crystallin S, residues 96 to 176; numbered along this chain, P22914 (parent)
chain: IQIFEKGDFSGQMYETTEDCPSIMEQFHMREIHSCKVLEGVWIFYELPNYRGRQYLLDKKEYRKPIDWGAASPAVQSFRRI

In the series the parent is B1. The experiment in a line: abundance fitness (aPCA) (normalised: wild type 0, dead -1); higher = more abundant; growth selection in yeast, the domain comes from the species named. Particulars: Homo sapiens.
Consider IQIFEKGDFSGQMYETTEDCPSIMEQFHMREIHSCKVLEGVWIFYELPNYRGRQYLLDKKEYRKPIDWGYASPAVQSFRRI [A70Y], for which the abundance fitness turned out to be 0.258 ± 0.19.

For IQIFEKGDFSGQMYETTEDCPSIMEQFHMREIHSCKVLEGVWIFYELPNYRGRQYLLDKKEYRKPIDWGAAMPAVQSFRRI [S72M], the abundance fitness was -0.149 ± 0.19.

For the variant IQIFEKGDFSGQMYETTEDCPSIMEQFHMREIHSCKVLEGVWIFYELPNYRGRQYLLDKKEYRKPIDWGAATPAVQSFRRI [S72T], the abundance fitness is -0.1 ± 0.33. As for IQIFEKGDFSGQMYETTEDCPSIMEQFHMREIHSCKVLEGVWIFYELPNYRGRQYLLDKKEYRKPIDWGAAPPAVQSFRRI [S72P], the figure is 0.069 ± 0.16; as for IQIFEKGDFSGQMYETTEDCPSIMEQFHMREIHSCKVLEGVWIFYELPNYRGRQYLLDKKEYRKPIDWGAARPAVQSFRRI [S72R], -0.154 ± 0.14; as for IQIFEKGDFSGQMYETTEDCPSIMEQFHMREIHSCKVLEGVWIFYELPNYRGRQYLLDKKEYRKPIDWGAAFPAVQSFRRI [S72F], -0.066 ± 0.15.

In the case of IQIFEKGDFSGQMYETTEDCPSIMEQFHMREIHSCKVLEGVWIFYELPNYRGRQYLLDKKEYRKPIDWGAAQPAVQSFRRI [S72Q], the abundance fitness came out at 0.086 ± 0.25. In the case of IQIFEKGDFSGQMYETTEDCPSIMEQFHMREIHSCKVLEGVWIFYELPNYRGRQYLLDKKEYRKPIDWGAANPAVQSFRRI [S72N] it was -0.204 ± 0.25; in that of IQIFEKGDFSGQMYETTEDCPSIMEQFHMREIHSCKVLEGVWIFYELPNYRGRQYLLDKKEYRKPIDWGAAAPAVQSFRRI [S72A], -0.016 ± 0.11.

As to IQIFEKGDFSGQMYETTEDCPSIMEQFHMREIHSCKVLEGVWIFYELPNYRGRQYLLDKKEYRKPIDWGAAEPAVQSFRRI [S72E], the abundance fitness is 0.125 ± 0.35. In the case of IQIFEKGDFSGQMYETTEDCPSIMEQFHMREIHSCKVLEGVWIFYELPNYRGRQYLLDKKEYRKPIDWGAAWPAVQSFRRI [S72W] it was 0.007 ± 0.15; in that of IQIFEKGDFSGQMYETTEDCPSIMEQFHMREIHSCKVLEGVWIFYELPNYRGRQYLLDKKEYRKPIDWGAAYPAVQSFRRI [S72Y], 0.173 ± 0.21; in that of IQIFEKGDFSGQMYETTEDCPSIMEQFHMREIHSCKVLEGVWIFYELPNYRGRQYLLDKKEYRKPIDWGAALPAVQSFRRI [S72L], 0.002 ± 0.14. On to IQIFEKGDFSGQMYETTEDCPSIMEQFHMREIHSCKVLEGVWIFYELPNYRGRQYLLDKKEYRKPIDWGAACPAVQSFRRI [S72C], for which the abundance fitness is -0.107 ± 0.3. As to IQIFEKGDFSGQMYETTEDCPSIMEQFHMREIHSCKVLEGVWIFYELPNYRGRQYLLDKKEYRKPIDWGAADPAVQSFRRI [S72D], the abundance fitness is -0.109 ± 0.32. Take IQIFEKGDFSGQMYETTEDCPSIMEQFHMREIHSCKVLEGVWIFYELPNYRGRQYLLDKKEYRKPIDWGAASLAVQSFRRI [P73L]: the abundance fitness was 0.338 ± 0.39. As for IQIFEKGDFSGQMYETTEDCPSIMEQFHMREIHSCKVLEGVWIFYELPNYRGRQYLLDKKEYRKPIDWGAASFAVQSFRRI [P73F], the figure is 0.27 ± 0.31. IQIFEKGDFSGQMYETTEDCPSIMEQFHMREIHSCKVLEGVWIFYELPNYRGRQYLLDKKEYRKPIDWGAASGAVQSFRRI [P73G]: the abundance fitness was -0.309 ± 0.16. As for IQIFEKGDFSGQMYETTEDCPSIMEQFHMREIHSCKVLEGVWIFYELPNYRGRQYLLDKKEYRKPIDWGAASEAVQSFRRI [P73E], the figure is -0.215 ± 0.24; as for IQIFEKGDFSGQMYETTEDCPSIMEQFHMREIHSCKVLEGVWIFYELPNYRGRQYLLDKKEYRKPIDWGAASDAVQSFRRI [P73D], -0.23 ± 0.24; as for IQIFEKGDFSGQMYETTEDCPSIMEQFHMREIHSCKVLEGVWIFYELPNYRGRQYLLDKKEYRKPIDWGAASHAVQSFRRI [P73H], 0.006 ± 0.31. As for IQIFEKGDFSGQMYETTEDCPSIMEQFHMREIHSCKVLEGVWIFYELPNYRGRQYLLDKKEYRKPIDWGAHSPAVQSFRRI [A71H], the figure is 0.052 ± 0.33. In the case of IQIFEKGDFSGQMYETTEDCPSIMEQFHMREIHSCKVLEGVWIFYELPNYRGRQYLLDKKEYRKPIDWGAKSPAVQSFRRI [A71K] it was 0.144 ± 0.32; in that of IQIFEKGDFSGQMYETTEDCPSIMEQFHMREIHSCKVLEGVWIFYELPNYRGRQYLLDKKEYRKPIDWGAPSPAVQSFRRI [A71P], 0.128 ± 0.43; in that of IQIFEKGDFSGQMYETTEDCPSIMEQFHMREIHSCKVLEGVWIFYELPNYRGRQYLLDKKEYRKPIDWGAGSPAVQSFRRI [A71G], 0.01 ± 0.14. Turning to IQIFEKGDFSGQMYETTEDCPSIMEQFHMREIHSCKVLEGVWIFYELPNYRGRQYLLDKKEYRKPIDWGAESPAVQSFRRI [A71E], the abundance fitness was found to be 0.028 ± 0.21. As for IQIFEKGDFSGQMYETTEDCPSIMEQFHMREIHSCKVLEGVWIFYELPNYRGRQYLLDKKEYRKPIDWGARSPAVQSFRRI [A71R], the figure is 0.007 ± 0.087; as for IQIFEKGDFSGQMYETTEDCPSIMEQFHMREIHSCKVLEGVWIFYELPNYRGRQYLLDKKEYRKPIDWGASSPAVQSFRRI [A71S], -0.125 ± 0.12; as for IQIFEKGDFSGQMYETTEDCPSIMEQFHMREIHSCKVLEGVWIFYELPNYRGRQYLLDKKEYRKPIDWGADSPAVQSFRRI [A71D], -0.308 ± 0.49. IQIFEKGDFSGQMYETTEDCPSIMEQFHMREIHSCKVLEGVWIFYELPNYRGRQYLLDKKEYRKPIDWGACSPAVQSFRRI [A71C]: the abundance fitness is -0.048 ± 0.16. In the case of IQIFEKGDFSGQMYETTEDCPSIMEQFHMREIHSCKVLEGVWIFYELPNYRGRQYLLDKKEYRKPIDWGAQSPAVQSFRRI [A71Q], the abundance fitness was -0.187 ± 0.3. For the variant IQIFEKGDFSGQMYETTEDCPSIMEQFHMREIHSCKVLEGVWIFYELPNYRGRQYLLDKKEYRKPIDWGALSPAVQSFRRI [A71L], the abundance fitness was -0.223 ± 0.17. Regarding IQIFEKGDFSGQMYETTEDCPSIMEQFHMREIHSCKVLEGVWIFYELPNYRGRQYLLDKKEYRKPIDWGAWSPAVQSFRRI [A71W], the abundance fitness came out at 0.018 ± 0.092. In the case of IQIFEKGDFSGQMYETTEDCPSIMEQFHMREIHSCKVLEGVWIFYELPNYRGRQYLLDKKEYRKPIDWGAMSPAVQSFRRI [A71M] it was 0.022 ± 0.13.
